Test [1] has as its target Rac2 (prenylated Rac-GTP) (UniProt P15153). The experiment in a line: liposome co-sedimentation, WAVE2 quantified. As to conditions: reference: WAVE2 complex, not PP2A treated.
Test [2] deals with prenylated Rac2-GTP (UniProt P15153). Description: co-sedimentation.

For “WAVE2 (from UniProt Q9Y6W5) PP2A treated WAVE2 complex”, in test [1], the “other: % of total WAVE2 bound” value is reported as “same; reference 56”.

On to “WAVE2 complex, PP2A treated (from UniProt Q9Y6W5 1-498; Q96F07 1-1278; Q9Y2A7 1-1128; Q8IZP0 1-508; Q8WUW1 1-75)”, for which, in test [2], the % bound (of total WAVE2) is 55% and the % bound (of total WAVE2; PIP3 liposomes + Rac-GTP) stood at 79%.

The values are drawn from article PMC2818508.
